{"source": "patent US20100286367", "proteins": {"B1": {"name": "thiolated streptokinase (protein)", "chain": "IAGPEWLLDRPSVNNSQLVVSVAGTVEGTNQDISLKFFEIDLTSRPAHGGKTEQGLSPKSKPFATDSGAMSHKLEKADLLKAIQEQLIANVHSNDDYFEVIDFASDATITDRNGKVYFADKDGSVTLPTQPVQEFLLSGHVRVRPYKEKPIQNQAKSVDVEYTVQFTPLNPDDDFRPGLKDTKLLKTLAIGDTITSQELLAQAQSILNKNHPGYTIYERDSSIVTHDNDIFRTILPMDQEFTYRVKNREQAYRINKKSGLNEEINNTDLISEKYYVLKKGEKPYDPFDRSHLKLFTIKYVDVDTNELLKSEQLLTASERNLDFRDLYDPRDKAKLLYNNLDAFGIMDYTLTGKVEDNHDDTNRIITVYMGKRPEGENASYHLAYDKDRYTEEEREVYSYLRYTGTPIPDNPNDK"}}, "molecular_target": "T1, purified human Lys77-Plasminogen, P00747", "T1 chain": "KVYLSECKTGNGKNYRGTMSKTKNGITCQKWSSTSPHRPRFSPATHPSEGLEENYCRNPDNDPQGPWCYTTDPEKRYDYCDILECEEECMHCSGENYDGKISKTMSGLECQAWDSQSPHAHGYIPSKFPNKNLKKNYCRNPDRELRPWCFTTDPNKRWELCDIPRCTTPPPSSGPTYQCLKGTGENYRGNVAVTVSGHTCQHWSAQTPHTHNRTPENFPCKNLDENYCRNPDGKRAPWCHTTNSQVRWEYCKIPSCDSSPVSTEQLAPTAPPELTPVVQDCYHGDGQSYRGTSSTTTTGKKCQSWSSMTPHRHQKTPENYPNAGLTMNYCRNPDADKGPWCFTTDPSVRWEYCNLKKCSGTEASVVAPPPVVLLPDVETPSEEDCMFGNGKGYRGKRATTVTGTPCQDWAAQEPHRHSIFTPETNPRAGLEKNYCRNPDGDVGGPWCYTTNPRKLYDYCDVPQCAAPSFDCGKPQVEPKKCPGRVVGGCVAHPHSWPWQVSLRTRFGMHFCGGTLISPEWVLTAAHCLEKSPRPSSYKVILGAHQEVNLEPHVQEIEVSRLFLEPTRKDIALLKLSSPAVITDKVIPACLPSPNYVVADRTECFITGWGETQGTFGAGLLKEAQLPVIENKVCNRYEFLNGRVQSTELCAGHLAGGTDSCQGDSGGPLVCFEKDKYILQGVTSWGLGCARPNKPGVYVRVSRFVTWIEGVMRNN", "data": [{"protein": "B1", "values": [{"measurement": "plasmin generated in the plasminogen activation assay (S-2251 amidolysis, SU/ml)", "value": "thiolated SK (1 nM) generated plasmin at a nearly linear of 4225 SU/mL"}]}]}
